Patent US20240165282A1, “CONFORMATIONAL CONSTRAINED SOMATOSTATIN RECEPTOR 3 PEPTIDE LIGANDS AND THEIR CONJUGATES AND USES THEREOF” (STARGET PHARMA LTD., priority 2021, published 2024)

Target: human cloned somatostatin receptor 2 (human) (UniProt P30874)
Experiment: cell-based or functional assay

human cloned somatostatin receptor 2 (human), sequence (P30874 whole entry): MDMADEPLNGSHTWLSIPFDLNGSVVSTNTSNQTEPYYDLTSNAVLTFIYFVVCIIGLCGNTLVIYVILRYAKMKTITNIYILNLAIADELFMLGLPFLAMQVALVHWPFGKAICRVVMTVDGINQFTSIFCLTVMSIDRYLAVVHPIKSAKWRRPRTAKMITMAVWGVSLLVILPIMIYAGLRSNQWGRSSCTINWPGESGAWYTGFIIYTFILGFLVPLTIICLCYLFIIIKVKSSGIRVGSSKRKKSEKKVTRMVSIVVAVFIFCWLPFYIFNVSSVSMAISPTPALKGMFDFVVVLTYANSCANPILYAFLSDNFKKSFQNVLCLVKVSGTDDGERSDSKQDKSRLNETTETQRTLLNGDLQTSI

SRIF-28 (from UniProt P61278 89-116) (ligand)
Cellular Internalization EC50 (β-Arrestin Luminescence Assay): 3 nM
Efficacy - maximal response: 47500 RLU
